Measured values: publication PMC12216678

Molecular target: mouse FXII^HC5 (mouse)
Experiment: native MS; buffer-exchanged into 1 M ammonium acetate pH 7.0, electrospray, Bruker maXis qTOF, native-favouring source conditions

Q: Which stoichiometry N does the source give for mouse FXII^HC5 (domain or fragment) here?
A: 2
